# Measurements from publication PMC6901440.
# B1: Flag-GSDMD full length, P57764 L150Q (protein)
# chain: MGSAFERVVRRVVQELDHGGEFIPVTSLQSSTGFQPYCLVVRKPSSSWFWKPRYKCVNLSIKDILEPDAAEPDVQRGRSFHFYDAMDGQIQGSVELAAPGQAKIAGGAAVSDSSSTSMNVYSLSVDPNTWQTLLHERHLRQPEHKVLQQQRSRGDNVYVVTEVLQTQKEVEVTRTHKREGSGRFSLPGATCLQGEGQGHLSQKKTVTIPSGSTLAFRVAQLVIDSDLDVLLFPDKKQRTFQPPATGHKRSTSEGAWPQLPSGLSMMRCLHNFLTDGVPAEGAFTEDFQGLRAEVETISKELELLDRELCQLLLEGLEGVLRDQLALRALEEALEQGQSLGPVEPLDGPAGAVLECLVLSSGMLVPELAIPVVYLLGALTMLSETQHKLLAEALESQTLLGPLELVGSLLEQSAPWQERSTMSLPPGLLGNSWGEGAPAWVLLDECGLELGEDTPHVCWEPQAQGRMCALYASLALLSGLSQEPH
# Target: Bcl-2 recombinant protein, P10415
# Sequence (P10415 whole entry): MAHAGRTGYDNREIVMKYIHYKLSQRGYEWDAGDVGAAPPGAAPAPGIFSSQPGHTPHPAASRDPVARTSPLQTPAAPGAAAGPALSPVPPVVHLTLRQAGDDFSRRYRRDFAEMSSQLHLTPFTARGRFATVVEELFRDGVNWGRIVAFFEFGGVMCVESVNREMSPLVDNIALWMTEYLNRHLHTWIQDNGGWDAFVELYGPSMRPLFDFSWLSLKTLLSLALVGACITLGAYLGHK
# Test: in vitro binding of Bcl-2 recombinant protein to immunoprecipitated Flag-GSDMD, western blot with band values printed under the Bcl-2 blot
# Details: chain shown with the change; incubated for one hour, then heavily washed; parent: 1
binder,measurement,value
B1,ratio to parent,0.45
